# Source: article PMC12691694, “Bacillus velezensis LoaP promotes antitermination by antagonizing NusA”
# T1: NusA (Bacillus velezensis, UniProt A7Z4T1 1-373)
# T1 sequence: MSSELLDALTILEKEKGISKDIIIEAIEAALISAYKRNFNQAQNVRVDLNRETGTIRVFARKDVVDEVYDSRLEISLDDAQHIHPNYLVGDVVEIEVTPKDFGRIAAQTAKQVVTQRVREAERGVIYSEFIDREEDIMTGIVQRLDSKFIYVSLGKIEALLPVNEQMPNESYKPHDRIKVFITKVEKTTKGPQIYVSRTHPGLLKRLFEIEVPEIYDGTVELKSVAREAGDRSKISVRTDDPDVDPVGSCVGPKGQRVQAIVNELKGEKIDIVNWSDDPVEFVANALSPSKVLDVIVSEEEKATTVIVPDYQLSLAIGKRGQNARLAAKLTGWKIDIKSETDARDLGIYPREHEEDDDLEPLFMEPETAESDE
# Target: T1, NusA
# Experiment: DRaCALA filter binding; 50 mM NaH2PO4 pH 7.2, 100 mM NaCl, 0.1 mM EDTA, 1 mM MgCl2, 100 ug/mL BSA, 25 ug/mL total yeast RNA, 2.5 nM labeled RNA, 45 min, room temperature
# Conditions: protein: recombinant; tags: N-terminal His10-SUMO removed by bdSENP1; label: 5'-32P; hairpin
row,Binder,binding result
1,GGAAACACAGUUUGCGAUUUUUAAACCUGUGCUGAAUCGCAAACUGUG (structured_RNA) [dfnA* mutant terminator (dfnA mut)],binds
2,dfnA terminator (structured_RNA) RNA: GGAAACACAAUGCGUUUGCGAUUUUUAAACCUGUGCUGAAUCGCAAACGCGUUUGUG,binds
